B1: ESRRG (parent)
chain: YSCPATNECEITKRRRKSCQACRF
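Note: lentivirally expressed fusions sorted by FACS into six bins by GFP to DsRed ratio, PSI derived from sequencing read proportions per bin multiplied by bin number.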

Variants of: B1
Assay: protein stability index of a GFP-peptide fusion (GPS, HEK-293T) (PSI 1-6); higher = more stable
Conditions: c terminus: a fixed tail appended
Work on YSCPATNECEITKRNRKSCQACRF [R15N] yielded a protein stability index of 3.62.
Variant YSCPATNECEITKRTRKSCQACRF [R15T] has a protein stability index of 3.22.
YSCPATNECEITKRYRKSCQACRF [R15Y] gave a protein stability index of 3.34.
YSCPATNECEITKRKRKSCQACRF [R15K] showed a protein stability index of 2.91.
YSCPATNECEITKRHRKSCQACRF [R15H] gave a protein stability index of 4.16.
In the case of YSCPATNECEITKRVRKSCQACRF [R15V], the protein stability index is reported as 3.22.
Variant YSCPATNECEITKRIRKSCQACRF [R15I] has a protein stability index of 3.32.
In the case of YSCPATNECEITKRFRKSCQACRF [R15F], the protein stability index is reported as 2.96.
YSCPATNECEITKRCRKSCQACRF [R15C] gave a protein stability index of 3.46.
YSCPATNECEITKRQRKSCQACRF [R15Q] showed a protein stability index of 3.38.
Variant YSCPATNEQEITKRRRKSCQACRF [C9Q] has a protein stability index of 3.47.
YSCPATNEEEITKRRRKSCQACRF [C9E] showed a protein stability index of 3.79.
For YSCPATNEPEITKRRRKSCQACRF [C9P], the protein stability index was 3.5.
Variant YSCPATNEMEITKRRRKSCQACRF [C9M] has a protein stability index of 3.59.
Work on YSCPATNETEITKRRRKSCQACRF [C9T] yielded a protein stability index of 3.61.
YSCPATNEYEITKRRRKSCQACRF [C9Y] gave a protein stability index of 2.69.
Variant YSCPATNENEITKRRRKSCQACRF [C9N] has a protein stability index of 3.18.
With YSCPATNEREITKRRRKSCQACRF [C9R] the protein stability index was 3.38.
Variant YSCPATNEIEITKRRRKSCQACRF [C9I] has a protein stability index of 3.48.
Variant YSCPATLECEITKRRRKSCQACRF [N7L] has a protein stability index of 2.74.
YSCPATWECEITKRRRKSCQACRF [N7W] showed a protein stability index of 2.35.
With YSCPATQECEITKRRRKSCQACRF [N7Q] the protein stability index was 3.36.
For YSCPATHECEITKRRRKSCQACRF [N7H], the protein stability index was 3.88.
Variant YSCPATFECEITKRRRKSCQACRF [N7F] has a protein stability index of 2.52.
Work on YSCPATCECEITKRRRKSCQACRF [N7C] yielded a protein stability index of 2.42.
Work on YSCPATNECEITKRRRMSCQACRF [K17M] yielded a protein stability index of 3.06.
In the case of YSCPATNECEITKRRRQSCQACRF [K17Q], the protein stability index is reported as 3.29.
In the case of YSCPATNECEITKRRRESCQACRF [K17E], the protein stability index is reported as 3.63.
YSCPATNECEITKRRRDSCQACRF [K17D] gave a protein stability index of 3.37.
For YSCPATNECEITKRRRTSCQACRF [K17T], the protein stability index was 2.92.
For YSCPATNECEITKRRRVSCQACRF [K17V], the protein stability index was 2.97.
Variant YSCPATNECEITKRRRHSCQACRF [K17H] has a protein stability index of 3.82.
YSCPATNECEITKRRRWSCQACRF [K17W] showed a protein stability index of 2.83.
With YSCPATNECEITKRRRYSCQACRF [K17Y] the protein stability index was 2.35.
Work on YSCPATNECEITKRRRISCQACRF [K17I] yielded a protein stability index of 3.51.
For YSCPATNECEITKRRRNSCQACRF [K17N], the protein stability index was 3.25.
In the case of YSCPATNECEITKRRRKSCEACRF [Q20E], the protein stability index is reported as 3.62.
YSCPATNECEITKRRRKSCWACRF [Q20W] gave a protein stability index of 2.21.
YSCPATNECEITKRRRKSCMACRF [Q20M] gave a protein stability index of 2.86.
In the case of YSCPATNECEITKRRRKSCAACRF [Q20A], the protein stability index is reported as 3.52.
Variant YSCPATNECEITKRRRKSCQACRI [F24I] has a protein stability index of 3.67.
For YSCPATNECEITKRRRKSCQACRA [F24A], the protein stability index was 4.
YSCPATNECEITKRRRKSCQACRH [F24H] gave a protein stability index of 4.18.
YSCPATNECEITKRRRKSCQACRL [F24L] showed a protein stability index of 3.61.
YSCPATNECEITKRRRKSCQACRE [F24E] showed a protein stability index of 4.19.
YSCPAWNECEITKRRRKSCQACRF [T6W] gave a protein stability index of 2.26.
For YSCPAMNECEITKRRRKSCQACRF [T6M], the protein stability index was 3.38.
With YSCPAENECEITKRRRKSCQACRF [T6E] the protein stability index was 3.37.
For YSCPAFNECEITKRRRKSCQACRF [T6F], the protein stability index was 2.47.
YSCPAINECEITKRRRKSCQACRF [T6I] showed a protein stability index of 3.31.
With YSCPARNECEITKRRRKSCQACRF [T6R] the protein stability index was 3.46.
In the case of YSCPAGNECEITKRRRKSCQACRF [T6G], the protein stability index is reported as 3.65.
With YSCPAQNECEITKRRRKSCQACRF [T6Q] the protein stability index was 3.42.
With YSCPAANECEITKRRRKSCQACRF [T6A] the protein stability index was 3.13.
Variant YSCPADNECEITKRRRKSCQACRF [T6D] has a protein stability index of 3.71.
YSCPATNECFITKRRRKSCQACRF [E10F] showed a protein stability index of 2.53.
For YSCPATNECCITKRRRKSCQACRF [E10C], the protein stability index was 3.06.
YSCPATNECIITKRRRKSCQACRF [E10I] gave a protein stability index of 2.8.
Work on YSCPATNECAITKRRRKSCQACRF [E10A] yielded a protein stability index of 3.27.
Work on YSCPATNECRITKRRRKSCQACRF [E10R] yielded a protein stability index of 3.44.
YSCPATNECDITKRRRKSCQACRF [E10D] gave a protein stability index of 3.34.
For YSCPATNECQITKRRRKSCQACRF [E10Q], the protein stability index was 3.59.
In the case of YSCPATNECLITKRRRKSCQACRF [E10L], the protein stability index is reported as 3.06.
Variant YSCPATNECEITKRRRKLCQACRF [S18L] has a protein stability index of 3.19.
In the case of YSCPATNECEITKRRRKMCQACRF [S18M], the protein stability index is reported as 3.38.
In the case of YSCPATNECEITKRRRKGCQACRF [S18G], the protein stability index is reported as 2.74.
YSCPATNECEITKRRRKECQACRF [S18E] gave a protein stability index of 3.43.
YSCPATNECEITKRRRKWCQACRF [S18W] gave a protein stability index of 2.93.
Variant YSCPATNECEITKRRRKNCQACRF [S18N] has a protein stability index of 3.44.
With YSCPATNECEITKRRRKFCQACRF [S18F] the protein stability index was 2.9.
YSCPATNHCEITKRRRKSCQACRF [E8H] gave a protein stability index of 3.14.
In the case of YSCPATNLCEITKRRRKSCQACRF [E8L], the protein stability index is reported as 3.02.
YSCPATNFCEITKRRRKSCQACRF [E8F] gave a protein stability index of 1.91.
YSCPATNSCEITKRRRKSCQACRF [E8S] gave a protein stability index of 2.97.
Variant YSCPATNRCEITKRRRKSCQACRF [E8R] has a protein stability index of 3.13.
For YSCPATNPCEITKRRRKSCQACRF [E8P], the protein stability index was 3.26.
Work on YSCPATNCCEITKRRRKSCQACRF [E8C] yielded a protein stability index of 3.12.
For YSCPATNECEITKRRRKSQQACRF [C19Q], the protein stability index was 3.78.
YSCPATNECEITKRRRKSEQACRF [C19E] showed a protein stability index of 3.84.
For YSCPATNECEITKRRRKSYQACRF [C19Y], the protein stability index was 3.44.
With YSCPATNECEITKRRRKSRQACRF [C19R] the protein stability index was 3.72.
With YSCPATNECEITKRRRKSFQACRF [C19F] the protein stability index was 3.17.
YSCPATNECEITKRRRKSWQACRF [C19W] gave a protein stability index of 3.15.
YSCPATNECEITKRRRKSTQACRF [C19T] gave a protein stability index of 3.85.
YSCPATNECEITKRRRKSSQACRF [C19S] showed a protein stability index of 3.54.
YSCPFTNECEITKRRRKSCQACRF [A5F] showed a protein stability index of 2.79.
Work on YSCPCTNECEITKRRRKSCQACRF [A5C] yielded a protein stability index of 3.43.
For YSCPITNECEITKRRRKSCQACRF [A5I], the protein stability index was 3.01.
Variant YSCPTTNECEITKRRRKSCQACRF [A5T] has a protein stability index of 2.78.
For YSCPETNECEITKRRRKSCQACRF [A5E], the protein stability index was 3.73.
YSCPLTNECEITKRRRKSCQACRF [A5L] gave a protein stability index of 3.2.
YSCPNTNECEITKRRRKSCQACRF [A5N] gave a protein stability index of 3.27.
YSCPATNECETTKRRRKSCQACRF [I11T] gave a protein stability index of 3.69.
With YSCPATNECEDTKRRRKSCQACRF [I11D] the protein stability index was 3.41.
